Literature values, collected in patent US20240158457A1, “INTERLEUKIN-18 RECEPTOR BINDING POLYPEPTIDES AND USES THEREOF” (Medikine, Inc., priority 2022, published 2024).

Biological target: T1, IL-18 (Homo sapiens, UniProt Q14116)
T1 sequence (Q14116 37-193): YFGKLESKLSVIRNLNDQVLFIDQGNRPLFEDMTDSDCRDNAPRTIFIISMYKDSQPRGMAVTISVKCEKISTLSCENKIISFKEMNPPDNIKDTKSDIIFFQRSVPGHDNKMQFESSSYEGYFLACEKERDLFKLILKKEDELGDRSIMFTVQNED
Details: background; read-out: affinity for IL-18

Kd: ~0.4 nM
B1: IL-18BP: IL-18 binding protein, decoy receptor; IL-18BP Fc fusion (Acro #ILP-H5253) (protein)
chain: TPVSQTTTAATASVRSTKDPCPSQPPVFPAAKQCPALEVTWPEVEVPLNGTLSLSCVACSRFPNFSILYWLGNGSFIEHLPGRLWEGSTSRERGSTGTQLCKALVLEQLTPALHSTNFSCVLVDPEQVVQRHVVLAQLWAGLRATLPPTQEALPSSHSSPQQQG
modifications: left off: a dimerising Fc or GST
